Measured values: publication PMC12915204, “A Cold Stress‐Activated Endocrine Sentinel Chemical Hormone Promotes Insect Survival via Mitochondrial Adaptations Through the Adipokinetic Hormone Receptor” (Advanced Science, 2025)

Tests used:
[1] = molecular target: adipokinetic hormone receptor (AKHR) of Monochamus alternatus, overexpressed in Drosophila S2 cells (Monochamus alternatus)
[2] = system: T1, adipokinetic hormone receptor (AKHR); assay: Microscale thermophoresis with AKHR-GFP in S2 cell lysate; supported by calcium imaging in AKHR-expressing S2 cells ([…] asc-C9); assay type: binding, Monochamus alternatus
T1 construct: GFP-tagged AKHR in S2 cell lysate (AKHR-GFP fusion protein)

## M. alternatus AKH peptide (adipokinetic hormone)
[1]
  calcium mobilization (Fluo-4 imaging) in AKHR-expressing S2 cells, dose-response to AKH; no response with an empty vector: 30 nM

## asc-C9
[2]
  Kd: 272 µM
